For data set [1], the target named is T1, DtHNL1 (Davallia tyermanii, UniProt A0A1C9V3S9).
T1 construct: gene HNL1; dimer; about 20 kDa
The data set can be described thus: X-ray crystal structure, soaking. Format: binding. To be noted: active site.

The test system of another data set is O=Cc1ccccc1. As to the kind of experiment: GC of (R)-mandelonitrile formed, initial rates, Michaelis-Menten fit. The following applies: apparent, synthesis direction, biphasic MTBE/buffer 2:1, 2 M HCN, pH 4.0, 10 °C. Format: biochemical, Davallia tyermanii.
Data set [2] addresses T1, DtHNL1. The data set can be described thus: benzaldehyde formation at […] nm, Michaelis-Menten fit. Format: biochemical. The following applies: cleavage direction; 50 mM sodium citrate-phosphate pH 5.0, 25 °C.
The next data set relates to N#C[C@H](O)c1ccccc1. The data set can be described thus: purified protein. It counts as biochemical, Davallia tyermanii. The following applies: cleavage direction, 50 mM sodium citrate-phosphate pH 5.0, 25 °C.
Data set [3] concerns the target Davallia tyermannii hydroxynitrile lyase 1 (DtHNL1) (Davallia tyermannii). The data set can be described thus: crystal structure; SeMet-SAD structure at 1.85 Å and native crystals soaked with 4-hydroxybenzaldehyde, benzoic acid or (R)-mandelonitrile; sitting drop vapor diffusion, 16 °C, protein in 10 mM Tris-HCl pH 8.0.
Where [4] appears, read: crystal soaked with (R)-mandelonitrile.

Turning to `O=Cc1ccccc1` [benzaldehyde], the “X-ray crystal structure, soaking” value on DtHNL1 [1] (setting [4]) was “Bound benzaldehyde (cyan, right) and (R)-mandelonitrile (yellow, left) as observed in a crystal”.

Consider DtHNL1 (Davallia tyermanii), for which, in the data set on O=Cc1ccccc1, the Km (as a rule, the substrate concentration at which the rate is half of its maximum) is 14000 ± 2000 µM; the kcat (usually the number of substrate molecules converted per active site and unit of time at saturation) came to 70 ± 7 s⁻¹.

Turning to `N#C[C@H](O)c1ccccc1` [(R)-mandelonitrile, (2R)-2-hydroxy-2-phenylacetonitrile], the “X-ray crystal structure, soaking” value at DtHNL1 [1] (setting [4]) is on record as 5E4B (DtHNL1-MXN). In addition, the Km on DtHNL1 [2] was found to be 300 ± 30 µM.

As to DtHNL4 (Davallia tyermanii), in the data set on N#C[C@H](O)c1ccccc1, the Michaelis-Menten constant (Km) is 630 ± 60 µM and the kcat was 272 ± 5 s⁻¹.

As for `O=C(O)c1ccccc1` [benzoic acid], the “X-ray crystal structure, soaking” value at DtHNL1 [1] is listed as 5E4D (DtHNL1–BEZ).

On to “Davallia tyermannii hydroxynitrile lyase 1 (DtHNL1) (enzyme)”, for which the stoichiometry N (commonly a count of units in the complex or per binding partner) in data set [3] stood at 2.

DtHNL2 (Davallia tyermanii): in the data set with N#C[C@H](O)c1ccccc1, the Km was determined as 450 ± 50 µM and the kcat was found to be 156 ± 3 s⁻¹.

DtHNL3 (Davallia tyermanii): in the data set on N#C[C@H](O)c1ccccc1, the Km came to 750 ± 80 µM and the kcat came to 356 ± 8 s⁻¹.

The values are drawn from publication PMC5413884, “Enzyme discovery beyond homology: a unique hydroxynitrile lyase in the Bet v1 superfamily” (Scientific Reports, 2017).
